The assay deals with T1, B7-H4 expressed on the human breast cancer cell line SkBr3 and on the B7-H4 expressing cell line MX-1 (human (SkBr3 is called a human breast …, UniProt Q7Z7D3 25-282)).
T1 construct: whole, on cells; also called VTCN1; B7x
T1 sequence (looked up): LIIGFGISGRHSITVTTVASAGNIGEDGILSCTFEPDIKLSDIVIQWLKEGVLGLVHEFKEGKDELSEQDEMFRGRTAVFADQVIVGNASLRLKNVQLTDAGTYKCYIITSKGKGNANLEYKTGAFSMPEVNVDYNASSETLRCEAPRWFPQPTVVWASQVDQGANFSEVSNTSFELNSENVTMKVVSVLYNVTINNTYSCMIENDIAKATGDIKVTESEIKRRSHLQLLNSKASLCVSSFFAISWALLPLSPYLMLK
In words: staining of SkBr3 cells, antibody at 10 ug/ml (FIG. 1).

B1: anti-B7-H4 antibody 817 (antibody, V domains shown)
VH: EVQLVESGGGLVQPGGSLRLSCAASGFTFSSYAMHWVRQAPGKGLEWVSAISGSGGSTRYADSVKGRFTISRDNSKNTLYLQMNSLRAEDTAVYYCARGRWSKWGFDVWGQGTLVTVSS
VL: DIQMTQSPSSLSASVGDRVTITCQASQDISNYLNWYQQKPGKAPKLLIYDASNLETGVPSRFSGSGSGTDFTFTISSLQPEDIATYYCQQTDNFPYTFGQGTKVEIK
Regarding B1, the binding result is on record as “binds”.

B2: anti-B7-H4 antibody 801 (antibody, V domains shown)
VH: EVQLVESGGGLVQPGGSLRLSCAASGFTFNSYAMHWVRQAPGKGLEWVSAISGNGGSTRYADSVKGRFTISRDNSKNTLYLQMNSLRAEDTAVYYCARDRFRKVHGFDVWGQGTLVTVSS
VL: DIQMTQSPSSLSASVGDRVTITCQASQDISNYLNWYQQKPGKAPKLLIYDASNLETGVPSRFSGSGSGTDFTFTISSLQPEDIATYYCQQDATFPLTFGQGTKVEIK
For B2, the binding result is reported as “binds”.
